The nature of the series: label from the status in PepcDB records.
On to “MHLGSTFYDETELRSLPFRHLGANVKIKRTAGLFFVENISIMDDARIDDFTIIVASREHVEIGCNVHIASQCYISGSDGFVMEDFSGLAPGVKIYTSSDDYTGEKMTNPTLPRHLIGGPAGKVVLRKHVIIGSNSVVLPKVTIEEGSSVGSLSLVNKSLPAWGVYAGIPVRRLRDRSQNILILEKELGASRA”, for which the protein production entry was “failed”.

Regarding “MHLGVIGATGTIGSRVVTEALARGHHVTAFTRDSTQIDEDRGNVVWKSLDVLDAASVAAGISGLDVLISGFQPGNAAKDIADTVARSIADPTVYATAARSLLKALESHPRTRLIVIGGAGSLEIEPGVVRADSDELLHSSLDALGLPRQYAAAVRGHRDALNVLRTSNRLWTYFSPAEDIAPGERTGRFRTGGDQPVLDAEGRSRISVEDAAVALVDEAELPRFVQRRFTIGY”, the protein production result is “failed”.

Regarding “MHLLVVEDDDIVRMLMVEVLDDLGYKVIEAEDATAALRVLEDPSQALALMMTDVGLPDMRGEELAGKARELRPLLPVLFASGYADSFNVPEGMHLIGKPFSIDQLRDTVVGILGTP”, the protein production entry is listed as “failed”.

Take “MHLQPQKKKKHLQTFLHPQQTQVLQTICLQPRQKGRVDSQLIVLQAQQQQALQVPVEAVNCSENMRRLSISEDFSKALQILYNLGKISDNRESFDNTXFYEENLGKALRVNDNTVKPSAPVSTQESLRTVELTEGFRHQCIFDFCRRRDILRYFFDPIKANLSKGHGSNFDKSDSVACTLHPYTPYPHLQQLWVYYMLTYTQYLPLRLVGGQNRCEGRLEVRHEGEWGTVCDDRWNIKNARVVCRLLGCGPALGAPGRSHFGPGTGPILMNEVRCSGREDSLESCAHAGWTRHNCHHREDASVICAGPADSLVPKDNAQLSCLPHLFQAVIDRGYLRRLGYSSWDIHLNDKMCRPQVTGRYLIFNIPYGHCGTVMQKHQGSLSYSNSIRGRTQGHPGRVIVRHKVPQVKFTCKVDGQSAVEIVHGSDTKDEASYDVSISFLQSPVSQNTGGRAPLASQREEVFLQATLHSHNPNLRLVVDTCVASPDASDFTTVKYDLIQEGCIKDNSYSNLHAPEKNVAQFKFNAFSFLKSYDVVYVQCKVAVCRLGDHSSRCSQGCLNRGRRGAGSAEVREEQTEYFQTVGPLKIHREANQSKVLV”: the protein production entry is “failed”.

In the case of “MHLRLSTLAGFKTGPRFQSSMSEAESESRAGREEVWIEKYRPQTLDDVMGHENIVGRLKSYVSRNDLSHMLFSGPAGTGKTTCATAIARELYGDDWREHFLELNASDERGIDVVRDRIKNFARTSFGGVEYRIIFLDEADALTSDAQSALRRTMEQFSNNVRFILSCNYSSQIIDPIQSRCAVFRFSPLADDAVAEEIRTIAAEEDIELTEDGLDALVYAADGDMRKAINGLQAASVSGDTVDESAVYAITSTARPEEIRTMVQSALDGDFTASRATLDRLLTEEGIAGGDIIDQLHRSIWEFDIDDDAAVRVLERIGETDYRITRGANERVQLEAMLASLAQGE”, the protein production result is “failed”.

Consider “MHLSRCRKCGRVMKGERIDPYRVKLTCSCGFSDFRTMTEKVKTVNPFFQKGGFSPLLESERGKMVLTMQRANREHLEIISLEEISMLVSSDFDLPEVLQHVTAKVATQLKVSVCNIYLREGDEVVLAATHGFDPAFIGKIRIKIGDGITGSVARDGQYISLSRASQDPRYRYFPELQEEKYNSMLSFPIGDKKEVYGVINLNTTSIRSFHEDEIYFVSIIANLILTAIKLRQQVASSRKAAEASA”, for which the protein production entry is “failed”.

For the sequence “MHMLFYKSYVREFIGEFLGTFVLMFLGEGATANFHTTGLSGDWYKLCLGWGLAVFFGILVSAKLSGAHLNLAVSIGLSSINKFDLKKIPVYFFAQLLGAFVGTSTVYGLYHGFISNSKIPQFAWETSRNPSISLTGAFFNELILTGILLLVILVVVDENICGKFHILKLSSVVGLIILCIGITFGGNTGFALNPSRDLGSRFLSLIAYGKDTFTKDNFYFWVPLVAPCVGSVVFCQFYDKVICPLVDLANNEKDGVDL”, the protein production result is recorded as “not failed”.

In the case of “MHNDQEISDANRDWWDSDAQRYHNDHAAYLNGFHWCPEMLPEREAHLLGDISGLNVLEIGCGSAPCSRWLFDNYDAFVTGFDLSMGMLRHSPTDVPLTQADAVNLPYKDSSFDIAFSAFGAFPFIENLGPVLKDIARCLKPHGKLVFSTNHPMRWIFPDDPTEIGLCAELSYFDRSYTERDKNGKITYAEFHRTMGDWIELLNASGFIIDRLIEPEWPTNLTETWGQWSPLRGRIFPGTAIFVTHCRLEHHHHHH”, the protein production entry is listed as “failed”.

“MHNKKWDLRIICAHAFTILIWGTAFPAIRMGLESYTPEHLTLLRLLIASFILLLFSFIYKLRLPDLKDIPAIFIFGALGFTIYHIALNYGEKTVNAGSASLIISVTPIVTAILASVFLNEKMKLNGWLGGVISFAGIALISFSQGDAIQLNSGGLFILLAAISESLFFVFQTSYLKKYGFLPFTIYTILSSTVCMLIFLPGVYQEILAAPLEVNLSVIYLGVFPTVLPYIALAYIISRAGASEATSSLYLTPITACFIAWIWLGEVPTLVSIIGGGITILGIVIAHIPVLRKEKHRNLANNQSV”: the protein production entry is “failed”.

For “MHNLANLYRTGWPGGVEKDTQKALDLYQKMIDLDVPQGFYDMGAMIGNRAGVKNPATDGLTFLDKAASLGNPPALTELGKFYIYVAKKKDLGLAYTHCAASQGYAPASYELGAYYKIVEHNFPKALVYYQVSVSQGGKSAAFFLSRVFGSETPPASAMWYAPDEKLREAYYSIYKKLEADPLEHHHHHH”, the protein production entry is recorded as “failed”.

Regarding “MHPNIATLLSANLGESRTRHLLSLVSVPDGLPSDAEGRATRAEIAQALNMVLFAGILDRVPTGRAYTDDVAATGGKVVFDHGALRTVKWRDNGALPEGEAAFTRILRPLGYRLNGNYPLDRISMTGRSYAHADAPEGIAQFFVSEFHPERFSDAFREAVGRVTGNSADPLTPRAQTLLWQLDRDGVLTVADGAELIGLLVPCFERQHGVPRLADYETLLRESAEMAWIATEGNAFNHATDRVDDVFGLSEQQKALGRPMKDKVEVSGSGRVKQTAFRADTVRRQFIGAQGETVERDVPGSFYEFITRDRFADAPAASPRVDLGFDAGNAQGIFKMTAAV”, the protein production entry is recorded as “not failed”.

“MHPTIARMQEVVAKGDESLIHALLAEDVRFMPPTYYKTWTGRDPVAAVLGHVGQVFSEFRYRRIMGEGKDWALEFQCKVGELDAVGVDLITLNEGGLIQDFEVVMRPYKTVGALRDAMNARVMTDARFLKYREALS”: the protein production result is “not failed”.

On to “MHQQGIRMEGMSDLNALNLEPGEVVGGYTLISRLGSGAMGSVWRVRDDGGTTYAMKILRDSLADESVAGSGSASAALHDPDLKPDVTPRERLRREAMALKKVNHPGVCGIVDMELDDTLAFIVTELIEGKNLKDDVAANGRYVGDDLERLARKLIDATKAVHAAGIVHRDIKPTNVMVSAAGPVLVDFGIAMGEGESHVTRTGLVMGTPGFIAPEIIDGAESDEATDWWSVASVLAFAATGAPVFGTKPMMAVLEREASGNANLSGLPAGTLAAFRSALDPDRTKRCTPDQLLNAIALDALNPAVWQGAQAGPFAAGAIAGGANTIAPAAGTAGETEAVPPFGAAGHVDRNNPRTIWRATDEAAQALTDEATTTLPDSAAPAISDEATVQLAGATVPLTEATTPLTSEATTPLTPVTGEPLLAPTTPLAERTAVLPSPQPTAFPPTPPVQLVGGMAQNGWNPAAADVQATVVDPNIRPALQRVIDQTAQFAPTEALVQQPLAPNPADVKRGEYLQRGVFPLLLLALPLAVLAASMPLIALLAAAAMLWLLLTLAYNTEPQLEREGRRGGERKSSDTWIRAATLPWHIVKALLLSLPRMVLLIVIAIAGTAAATMALALPTQTVYWYFTPERGVPIPLLNDVPLSASGLALGGFMAIGWLVTVFGPQAMMARLGAGVLRGLNPRQAQSPMPLAYDGSPAVPSPAAMAPASATRGKRSTMLFTIWIIVTLALCTLPLTGMAIDWTPLV”, for which the protein production result is “failed”.

For “MHRFFATRTSRIISVVLSLTFLAGCSLSEIDRIERQTKDSGEIARRISDTNRAKAQPAVRWMDKPWVSLKPLAPVVANPEEKILPPCQITINRPDGMNLPELGQRITGLCGPRVTITPDAFLVLSPANVRSGTSQQMPGSLPAPDGHGRVSLPYLGAQSPSASVMKQSDKHISTLKWQGDLPGLLDTIGSRLGLSWRVNKGNIVFYQLDTRMFQLVILNTKISSSASVTSGSSSSIGSSGGTNSGVSGESSSAQKTSVDLNSDLYGDIKKTIENMLTPSKGRFWLSSASGTLTVTDTPETLERIGRYIDYQNELLNRQVQLNVQVLSVTQSRKEQFGLDWKLVYQSLNNIGASVTGNLINAADNAFSGGLSILDTATGPAAKFSGSELLIKALSQQGNVSLVTELNRATINLTPVPFQISDQTGYIQSSSTTATANAGTTSSMQTGIITTGLFMSMLPYIQENGDVQLQFAFTLSDKPTIQPFFSRDGNTRTDTPAFKLRSLTQTVNMRAGQTLVLTGADQLDSVANKQGAFTPGNFLFGGGHVGSDTRTTLVILITPVLLR”, the protein production entry was “failed”.

Consider “MHSAALLQKVDELPRLPKAIAELLDVVNNEDSTVKAVSEKLSHDPVLSARVLRLANSARFGCSREVGTIDDAVVRLGMQTLRTLVIASAVVGAVPKVEGFDLADFWGNTFEVAIICQELAKRLGTLPEEAFTCGILHSIGELLIVNGDPAVAATISAAVADGADRNLMEKELLGYDNAEIGALLAQSWKFTPHLVKGIQFQNHPKSAEPYSKLAGMLAMAKQIAADWDKIPDDERTSWLAQINILAGIKVDLGGLAEKLAKMHGQGMEMGKQLA”, for which the protein production entry is given as “not failed”.

Consider “MHSPHDPYVRVRDAREHNLKGVDVDVPRDVLAVFTGVSGSGKSSLAFGTVYAEAQRRYFESVAPYARRLIHQIGAPKVGGITGLPPAVSLQQRRATPTSRSSVGTVTNLSNSLRMLFSRAGTYPPGAERLDSDAFSPNTAAGACPECHGLGRVHRTTEELLVPDPSLSIRDGAIAAWPGAWQGKNLRDVLDALGYDVDRPWRELPAEAREWILFTDEQPVVTVHPVREAGRIQRPYQGTYMSARRYVLKTFADSKSATLRAKAERFLNSAPCPVCGGGRLRAEALAVTVGGRTVAELAALPLAELPRLLPTEGEAAKVLAEDLISRIAPVVELGLGYLSLDRPTPTLSAGELQRLRLATQLRSGLFGVVYVLDEPSAGLHPADTEALLTVLERLKAAGNSVFVVEHHLGVMRGADWIVDVGPLAGEHGGRVLYSGPVDGLARVAESATARHLFDRSPAPVREVRTPRGAVTIGPVTRHNLRGVTVRVPLGVLTAVTGVSGSGKSTLVGEITEDLPGVDRLVSVDQRPIGRTPRSNLATYTGLFDVVRKVFAATDRARERGFGVGRFSFNVPGGRCETCQGEGFVSVELLFLPSTYAPCPDCGGARYNPETLEVAYRGRNIAEVLDLTVEGAAQFFTDTPAVARSLAALLDVGLGYLRLGQPATELSGGEAQRIKLASELQRGRRGHTLYLLDEPTTGLHPADVEVLMRQLHGLVDAGHTVVVVEHDMSVVAGADHVIDLGPGGGDAGGRIVAEGTPARVAGAAGSATAPYLARALDGGERR”, for which the protein production result was “failed”.

These data come from a protein production outcome set (Wang et al. 2014).
